Measurements: patent US20150160214A1, “Quantitation of Cellular Adhesion Dynamics Across Immobilized Receptors Under Rheological Shear Flow” (Mayo Foundation for Medical Education and Research, priority 2013, published 2015)
Where “and” joins values, the source holds several entries; their conditions need not be identical. Equal entries are not always repeated.

Columns and labels:
Assay type in all cases: physicochemical
[1] = GdnHCl- and urea-induced unfolding at 25° C. by circular dichroism (Example 2); conditions: CD
Description: The thermodynamic stability of A1 and of RCAM A1 was determined from GdnHCl and urea induced unfolding measured via CD and FL at 25° Celsius (FIG. 14). […] Complete unfolding of A1 and of RCAM A1 occurs in GdnHCl but not in urea. However, in presence of urea, a small expansion of RCAM A1 compared to A1 in its intermediate state is observed.
Urea and GdnHCl induced unfolding of A1 and of RCAM A1 at 25° Celsius was monitored via CD at 222 nm on an Aviv Biomedical Model 420C circular dichroism spectrometer. A 1 mm quartz cuvette and protein concentrations of 5 or 10 μM were used. Samples were equilibrated in their urea or GdnHCl containing buffer at 25° Celsius overnight. CD-signal was averaged for 5 to 10 min using an integration time of 1 s. CD-spectra were measured at 20° Celsius using 0.1 or 1 mm quartz cells with a step width of 1 nm between 190 and 260 nm with an integration time of 20 s and a bandwidth of 1 nm. CD-spectra in the near UV range (260-360 nm) were recorded using a 5 cm quartz cell with a 120 s integration time. Transition curves and protein spectra were corrected for the CD Signal of the corresponding buffer.

[2] = Temperature-induced unfolding by fluorescence and CD, irreversible models (Example 1)
Description: A1-1261 and A1-1238 were thermally unfolded using intrinsic protein tyrosine and tryptophan fluorescence with an excitation λ=280 nm and emission λ=359 nm and CD monitored at λ=222 nm. […] As the scan rate increases, the midpoint of the transition (apparent TM) also increases.
Thermal transitions were analyzed in terms of the observed midpoint of the transition, apparent TM, and also by a two-state irreversible model or a three-state irreversible model as described in the Supplement and the calculated parameters are summarized in FIGS. 5A to 5D. […] If the protein unfolding was at equilibrium and reversible, this apparent TM would remain constant at all scan rates. Extrapolation of the TM to a scan rate of 0° Celsius/min provides an indication of where reversible unfolding would occur under equilibrium conditions; 50° Celsius for A1-1238 and 48° Celsius for A1-1261 from both CD and fluorescence data. For the second transition observed by fluorescence that occurs with A1-1238, the TM extrapolates to about 73° Celsius in the limit of zero scan rate. Analysis by the two-state and three-state irreversible models yields an R^2>0.99 for both fluorescence and CD and a transition temperature, T*, that is independent of the temperature scan rate. In addition, the enthalpies of the transitions are independent of scan rate within experimental error FIG. 5B. FIGS. 5C and 5D show the resulting average T* and ΔHT*^‡±the standard deviation obtained from the fitting of the primary thermal transitions in FIG. 4A to 4D for CD and fluorescence and a total average for both methods. […] However, the unfolding enthalpy was statistically larger for A1-1238 (250±15 kJ/mol) than for A1-1261 (204±10 kJ/mol). The average T* and ΔHT*^‡ observed in the second fluorescence transition of A1-1238 is 89.1±2.2° Celsius and 360±14 kJ/mol.
Prior to all spectroscopic thermal scans, protein samples were equilibrated at 10° Celsius for 15 min to obtain a stable baseline. CD thermal scans between 10 and 95° Celsius were recorded at λ=222 nm using a protein concentration of 1 or 2 μM in a 1 cm quartz cell under moderate stirring. Scan rates were 0.5, 1.0, 1.5 and 2.0° Celsius/min. Integration time for each data point was 20 s with a 1 nm bandwidth. Fluorescence thermal scans between 10 and 95 Celsius were recorded at an emission λ=359 nm after excitation λ=280 nm or λ=295 nm using 2 μM protein in a 1 cm quartz cell with moderate stirring. Scan rates were 0.4 or 0.6, 0.9, 1.6 and 2.0° Celsius/min. At each temperature, relative fluorescence intensity was collected for 4 s and averaged. Thermal scans in the presence of N-terminal peptide at 2.0° Celsius/min were preceded by 1 h incubations at 20° Celsius with 0.02-300 μM peptide.
For an irreversible two-state transition, unfolding is kinetically controlled by a first order rate constant that varies with temperature according to the Arrhenius equation (Atkins:1994). In our analysis the inventor refers to the intermediate state as the final irreversible state for all thermal transitions involving the unfolding of A1-1261 in the absence of peptide when monitored by fluoresence, CD and DSC and for A1-1238 when monitored by CD and DSC. The following equations derived below are equally valid for any two state irreversible transitions The activation energy in going from N->I is ΔG^‡=−RT ln k^‡ and the inventor expands ln k^‡ as a function of temperature in terms of Δβ=(β−β*)=(1/RT−1/RT*) using a Taylor series, where T̂* is the temperature at which ΔG^‡=0.

[3] = Urea-induced unfolding monitored by CD at 222 nm (Example 1); conditions: 25° Celsius, native to intermediate transition
Description: A1-1261 and A1-1238 were chemically unfolded with urea in order to compare the obtained thermodynamic parameters. The unfolding was monitored at 25° Celsius by CD at λ=222 nm, FIG. 3B. For both proteins, unfolding through an intermediate state was observed, as has been previously reported (Auton:2009). The thermodynamic parameters are illustrated in the insets of FIG. 3B and listed in the Supplement Table 2. Relative to A1-1261, A1-1238 has a marginal loss in unfolding cooperativity (+0.55±0.38 kJ/mol/M) of the transition and the midpoint, cm, of A1-1238 is increased by +0.27±0.04 M. These two contributions to the ΔG^0 cancel each other so that the N-terminal peptide is neither stabilizing nor destabilizing the conformational transition.
Isothermal urea induced unfolding of A1-1261 and A1-1238 at 25° Celsius was monitored via CD at λ=222 nm using a quartz cuvette with a path length of 1 mm and a protein concentration of 10 μM after an overnight equilibration. CD-signal was averaged for 10 min, corrected for the corresponding CD-signal of the buffer and converted into mean molar ellipticities per amino acid residue (θMRW).
Isothermal urea unfolding was analyzed using a three state reversible model (N<->I<->D) as previously described (Auton:2009, Auton:2007). All thermal unfolding transitions were analyzed according to the irreversible models provided in the Supporting Information. […]

[4] = covalently linked N-terminal peptide

A1-1238: Recombinant human vWF A1 domain, amino acids Q1238-P1471, with N-terminal 6×His-Tag, disulfide intact
cm, I ⇄ D ([1]; GdnHCl): 4.40 ± 0.02 M | cm, N ⇄ I ([1]; GdnHCl): 0.819 ± 0.006 M | m-value, I ⇄ D ([1]; GdnHCl): −6.66 ± 0.30 kJ/mol/M | m-value, N ⇄ I ([1]; GdnHCl): −18.67 ± 0.76 kJ/mol/M | ΔG^0, I ⇄ D ([1]; GdnHCl): 7.003 ± 0.315 kcal/mol | ΔG^0, N ⇄ I ([1]; GdnHCl): 3.654 ± 0.151 kcal/mol | cm, I ⇄ D ([1]; Urea): 10.03 ± 0.19 M | cm, N ⇄ I ([1]; Urea): 2.85 ± 0.02 M | m-value, I ⇄ D ([1]; Urea): −3.35 ± 0.62 kJ/mol/M | m-value, N ⇄ I ([1]; Urea): −4.70 ± 0.17 kJ/mol/M | ΔG^0, I ⇄ D ([1]; Urea): 8.03 ± 1.49 kcal/mol | ΔG^0, N ⇄ I ([1]; Urea): 3.203 ± 0.117 kcal/mol | Apparent TM extrapolated to a scan rate of 0° Celsius/min, primary transition ([2]; CD and fluorescence data): 50 ° Celsius and 49.8±1.2 ° Celsius | Transition temperature T*, primary unfolding transition ([2]; average of CD and fluorescence): 63.9±0.6 ° Celsius | Unfolding enthalpy ΔHT*‡, primary unfolding transition ([2]; average of CD and fluorescence): 59.8 ± 3.59 kcal/mol | Average T*, second fluorescence transition [2, 4]: 89.1±2.2 ° Celsius | Average ΔHT*‡, second fluorescence transition [2, 4]: 86 ± 3.35 kcal/mol | Apparent TM extrapolated to zero scan rate, second transition by fluorescence ([2]; fluorescence): about 73 ° Celsius | Change in midpoint cm relative to A1-1261 [3]: +0.27±0.04 M | Change in unfolding cooperativity (m-value) relative to A1-1261 [3]: +0.55±0.38 kJ/mol/M
